{"source": "patent US20140323400A1", "about": "(ASSOCIATION FRANCAISE CONTRE LES MYOPATHIES, published 2014)", "binders": {"B1": {"name": "Peptide Biotine-69-101 mFibromoduline mutated (Fmod mutated) (peptide)", "peptide": "Biotin-PPPEPRDCPQEADAPPNFPTAMYADNRNLKYLP-NH2", "SMILES": "CSCC[C@H](NC(=O)[C@H](C)NC(=O)[C@@H](NC(=O)[C@@H]1CCCN1C(=O)[C@H](Cc1ccccc1)NC(=O)[C@H](CC(N)=O)NC(=O)[C@@H]1CCCN1C(=O)[C@@H]1CCCN1C(=O)[C@H](C)NC(=O)[C@H](CC(=O)O)NC(=O)[C@H](C)NC(=O)[C@H](CCC(=O)O)NC(=O)[C@H](CCC(N)=O)NC(=O)[C@@H]1CCCN1C(=O)[C@H](CS)NC(=O)[C@H](CC(=O)O)NC(=O)[C@H](CCCNC(=N)N)NC(=O)[C@@H]1CCCN1C(=O)[C@H](CCC(=O)O)NC(=O)[C@@H]1CCCN1C(=O)[C@@H]1CCCN1C(=O)[C@@H]1CCCN1C(=O)CCCC[C@@H]1SC[C@@H]2NC(=O)N[C@@H]21)[C@@H](C)O)C(=O)N[C@@H](Cc1ccc(O)cc1)C(=O)N[C@@H](C)C(=O)N[C@@H](CC(=O)O)C(=O)N[C@@H](CC(N)=O)C(=O)N[C@@H](CCCNC(=N)N)C(=O)N[C@@H](CC(N)=O)C(=O)N[C@@H](CC(C)C)C(=O)N[C@@H](CCCCN)C(=O)N[C@@H](Cc1ccc(O)cc1)C(=O)N[C@@H](CC(C)C)C(=O)N1CCC[C@H]1C(N)=O", "notes": "also called mutated biotin mFmod peptide"}}, "molecular_target": "T1, mature myostatin (UniProt O08689 268-376, limits assumed)", "T1 construct": "mature; also called MSTN", "T1 sequence (looked up)": "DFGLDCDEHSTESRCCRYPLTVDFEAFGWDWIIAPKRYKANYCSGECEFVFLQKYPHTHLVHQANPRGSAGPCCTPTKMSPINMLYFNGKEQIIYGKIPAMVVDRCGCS", "test": "ELISA, biotinylated peptide on coated myostatin, with or without zinc", "procedure": "For this, 3 μl of myostatin at a concentration of 100 ng/μl are taken up in 50 μl of carbonate buffer and added to each well of the assay plate (R&D Systems DY990). After an overnight incubation at 4° C., the plate is washed with 100 μl of PBS-Tween (0.05% Tween 20), then the blocking step to saturate non-specific sites is carried out for 2 hours at room temperature with 100 μl of PBS and 6% of milk per well. Five successive washes with 200 μl of PBS-Tween (0.05% Tween 20) are performed and increasing amounts of biotinylated fibromodulin peptides are then deposited (100 μl final in PBS) and the plate is incubated for 1 hour at 37° C. For the positive control, an antibody of goat anti-myostatin (≠AF788, R&D Systems), which was deposited in the control wells and incubated for 1 hour at 1/100th (0.1 mg/ml) was […]. The wells were then washed 5 times with PBS-Tween (0.05% Tween 20). […] After five washes, adding the peroxidase substrate, the TMB Substrate Reagent Set (Tetramehylbenzidine, OptEIA, ≠555214) allows the obtention of a colored reaction proportional to the quantity of HRP present in the wells. The reaction is stopped after 20 minutes by addition of sulfuric acid 2N, and the plate is read at 450 nm on a Discovery HT-R spectrophotometer (Bio-TEK).", "note": "The star is where a group is joined. Biotin = O=C1N[C@H]2[C@H](CS[C@H]2CCCCC(=O)*)N1"}
{"binder": "B1", "values": [{"measurement": "binding result", "result": "no binding"}]}
